Assay results taken from patent publication US20250170285A1, “RADIOLABELLED OLIGONUCLEOTIDES AND PROCESS FOR THEIR PREPARATION” (Hoffmann-La Roche Inc., priority 2018, published 2025).
Where two headings read alike, the source gives them in different places.

Assays:
[1] = in vivo
Procedure: (§1) Serial dilutions were made from stock solution (approx. 1 mg/mL in PCR grade water, the exact concentration of the stock solution will be quantified with the spectro-photometric device Nanodrop (Thermo Scientific) based on the extinction coefficient at 260 nm) to generate working solutions in water from approx. 100 ng/mL up to approx. 250000 ng/mL.
(§2) Calibration standards and quality control samples (freshly prepared in plasma, 50 μL) were treated for protein denaturation with 150 μL of 4 M guanidine thiocyanate after addition of the internal standard. After vigorously mixing (20 min at 1600 rpm), 200 μL of a water/hexafluoroisopropanol/diisopropylethylamine solution (100:4:0.2, v/v/v) were added, followed by mixing (15 min at 1500 rpm). Then a clean-up step was performed by means of solid-phase-extraction cartridges (Waters, OASIS HLB 5 mg, 30 μm) after elution and evaporation to dryness (30-45 min at +40° C.) the samples were reconstituted in 200 μL of mobile phase (water/methanol/hexafluoroisopropanol/diisopropylethylamine (95/5/1/0.2, v/v/v/v)). After vortex mixing (10 min at 1500 rpm), an aliquot (20 μL) was injected into a LC-MS/MS system (50 μL loop).
(§3) A Shimadzu 30ADXR pump was used, equipped with a Waters Acquity C18 column (50×2.1 mm) at 60° C. […]

[2] = Single dose PK experiment: liver concentration of tritium labeled LNAs by LSC; type: in vivo; details: single dose 1 mg/kg; liver 24, 72 and 336 h after dosing; radioactivity by LSC, FIG. 2
Procedure: A single dose PK experiment with Example 3.b ([^3H]-compound 2 based on conjugate 4) and Example 3.c ([^3H]-compound 3 based on conjugate 7) at 1 mg/kg was done. LNAs were analyzed in liver 24, 72 and 336 h after dosing. The study will confirm the feasibility of oligonucleotides with radioactive conjugation.
A Packard Tri-carb 3100TR was used for LSC analysis.
In FIG. 2 the liver concentration of the tritium labeled compounds of Example 3.b (dotted line) and Example 3.c (continuous line) have been analyzed by LSC.

[3] = Tissue exposure study: liver concentration of unlabeled LNAs by LC-MS/MS; details: analyzed by LC-MS/MS, FIG. 1
Procedure: as §1, §2, §3

5′-GN2-C6-ca G*A*G*t*t*a*c*t*t*g*c*c*a*A*C*T*-3′ (CAGAGTTACTTGCCAACT; 5'-GalNAc2-C6 conjugate, LNA and phosphorothioate, case key not given here, further chemistry not given here) [GalNAc LNA study compound A]
liver concentration (liver uptake) [1]: high initial uptake in the liver plasma and a normal decrease over the time

5′-GN2-C6-caG*A*G*t*t*a*c*t*t*g*c*c*a*A*C*T*-C6SH-[^3H]-NEM [Example 3.b]
liver concentration (liver uptake) [2]: equivalent liver uptake as a therapeutic GalNAc LNA

5′-G*A*G*t*t*a*c*t*t*g*c*c*a*A*C*T*-3′ (GAGTTACTTGCCAACT; all phosphorothioate, sugars by position and methylation of C not given here; further chemistry not fully specified) [LNA study compound A]
liver concentration (liver uptake) [3]: lower level of uptake
